The results in this text go back to US6214868A, “Method for preventing or treating coronary restenosis with catechin” (Sam-A Pharm. Co., Ltd., priority 2000, dated 2001).

Type in all cases: cell-based
Assay [1] concerns p44^mapk. Briefly: Phosphorylation of p44^mapk in rat VSMCs (western blotting). The following applies: in words; western blot. As for the experimental part:
(§1) The resulting culture was incubated for 24 hours. 50 ng/ml of PDGF-BB was added thereto and kept for 5 minutes. […] The above procedure was also repeated without PDGF-BB treatment.
(§2) The VSMC was lysed and the VSMC lysate(corresponding amount to 70 μg proteins) was subjected to SDS-PAGE. The proteins separated on the gel was transferred to a nitrocellulose membrane and the membrane was saturated with Tris buffered saline(TBS) containing 3% milk protein. A primary antibody(Promega, dilution ratio: 1:5,000) for catalytically activated p44^mapk /p42^mapk whose threonine and tyrosine residues are phosphorylated, was added thereto and kept over night. The membrane was washed three times with TBS containing 0.05% Tween 20. The membrane was reacted with a horseradish peroxidase-conjugated anti-IgG secondary antibody and developed using Amersham ECL kit. Linearity of MAPK concentration-ECL signal correlation was examined using standard p42, a recombinant, activated MAPK(Upstate Biotechnology), and serially diluted artery tissue homogenate. Bands on the X-ray film were quantified using Molecular Dynamics personal laser densitometer.
(In general: In western blotting, separated proteins are transferred to a membrane and probed.)

The subject of assay [2] is p42^mapk. As to the kind of experiment: Phosphorylation of p42^mapk in rat VSMCs (western blotting). The following applies: in words; western blot. As for the experimental part:
as §1, §2

Assay [3] concerns rat VSMCs. Briefly: Inhibition of VSMC growth, 3H-thymidine DNA incorporation, in the presence of PDGF-BB. As to conditions: in words; 50 ng/ml PDGF-BB, control data.
Procedure: Each rat was suffocated with CO2, and its chest was disinfected and incised to remove the arteriae aorta. All operative apparatus and glass articles were autoclaved and all operations were conducted on a clean bench. The arteriae aorta was dipped in physiological salt solution(PSS) and its adipose tissues were removed. The resulting arteriae aorta was treated with 0.2% collagenase in an incubator maintained at 37° C. for 30 minutes. Its endothelium and adventitia were removed and the resulting arteriae aorta was ground up. A complete DMEM (DMEM containing 10% FBS, an antibiotic and glutamine) containing 0.2% collagenase was added thereto and the resulting mixture was kept at 37° C. for 4 hours while shaking with an orbital shaker.
The resulting mixture was centrifuged at 1,500×g for 5 minutes to remove the collagenase and the cell precipitate was suspended in an appropriate amount of complete DMEM. […]
The wells were washed twice with a serum-free medium, Hunger medium(Gibco), and fresh Hunger medium was added thereto. […] A 50 μl portion of the resulting reaction mixture was subjected to protein quantification. Further, a 100 μl portion of the resulting reaction mixture was added to 5 ml of a cocktail solution to measure the radioactivity, thereby determining the amount of ^3 H-thymidine incorporated into the cell. […]

B1: PDGF-BB: platelet derived growth factor(PDGF)-BB (protein, UniProt P01127 82-190, looked up)
Platelet-derived growth …: SLGSLTIAEPAMIAECKTRTEVFEISRRLIDRTNANFLVWPPCVEVQRCSGCCNNRNVQCRPTQVQLRPVQVRKIEIVRKKPIFKKATVTLEDHLACKCETVAAARPVT
modifications: BB homodimer
For B1, the “phosphorylated p44^mapk /p42^mapk band density (p44)” value in assay [1] was “enhanced density as compared with the blank”. Also, the “phosphorylated p44^mapk /p42^mapk band density (p42)” value in assay [2] is “enhanced density as compared with the blank”. In addition, the “VSMC growth on PDGF-BB treatment” value in assay [3] is “greatly enhances the VSMC growth”.
